Earlier results on four substances are cited in publication PMC10653114.

Data set [1] addresses Lys19 (UniProt position 259, LHITEKLEVLA). As to the kind of experiment: NMR (per the title of cited ref 99). The following applies: 298 K; Conc. 0.10 (unit not given; K+/Cl–).
In data set [2] the target is Lys25 (UniProt position 265, LEVLAKAYSVQ). Kind of data set: NMR (per the title of cited ref 99). Conditions: 298 K; Conc. 0.10 (unit not given; K+/Cl–).
Data set [3] has as its target Lys33 (UniProt position 273, SVQGDKWRALG). As to the kind of experiment: NMR (per the title of cited ref 99). Conditions: 298 K; Conc. 0.10 (unit not given; K+/Cl–).
Data set [4] concerns the target Lys41 (UniProt position 281, ALGYAKAINAL). As to the kind of experiment: NMR (per the title of cited ref 99). The following applies: 298 K; Conc. 0.10 (unit not given; K+/Cl–).
In data set [5] the target is Lys47 (UniProt position 287, AINALKSFHKP). Kind of data set: NMR (per the title of cited ref 99). Conditions: 298 K; Conc. 0.10 (unit not given; K+/Cl–).
Data set [6] concerns the target Lys51 (UniProt position 291, LKSFHKPVTSY). Kind of data set: NMR (per the title of cited ref 99). The following applies: 298 K; Conc. 0.10 (unit not given; K+/Cl–).
Data set [7] addresses Lys67 (UniProt position 307, IPGIGKRMAEK). Kind of data set: NMR (per the title of cited ref 99). Conditions: 298 K; Conc. 0.10 (unit not given; K+/Cl–).
Data set [8] concerns the target Lys72 (UniProt position 312, KRMAEKIIEIL). As to the kind of experiment: NMR (per the title of cited ref 99). The following applies: 298 K; Conc. 0.10 (unit not given; K+/Cl–).
Data set [9] deals with Lys8 (UniProt position 248, QPSSQKATNHN). Kind of data set: NMR (per the title of cited ref 99). Conditions: 298 K; Conc. 0.10 (unit not given; K+/Cl–).
Data set [10] has as its target Lys84 (UniProt position 324, SGHLRKLDHIS). Kind of data set: NMR (per the title of cited ref 99). The following applies: 298 K; Conc. 0.10 (unit not given; K+/Cl–).
Data set [11] has as its target Asp16 (UniProt position 16, FQEALDAAGDK). The following applies: 298 K; Conc. 0.00 (unit not given; Na+/Cl–).
In data set [12] the target is Asp20 (UniProt position 20, LDAAGDKLVVV). The following applies: 298 K; Conc. 0.00 (unit not given; Na+/Cl–).
Data set [13] concerns the target Asp26 (UniProt position 26, KLVVVDFSATW). The following applies: 298 K; Conc. 0.00 (unit not given; Na+/Cl–).
Data set [14] has as its target Asp64 (UniProt position 64, VDDCQDVASEC). The following applies: 298 K; Conc. 0.00 (unit not given; Na+/Cl–).
Data set [15] concerns the target Glu103 (UniProt position 103, EATINELV---). The following applies: 298 K; Conc. 0.00 (unit not given; Na+/Cl–).
In data set [16] the target is Glu13 (UniProt position 13, KTAFQEALDAA). The following applies: 298 K; Conc. 0.00 (unit not given; Na+/Cl–).
The target in data set [17] is Glu47 (UniProt position 47, FHSLSEKYSNV). Conditions: 298 K; Conc. 0.00 (unit not given; Na+/Cl–).
In data set [18] the target is Glu56 (UniProt position 56, NVIFLEVDVDD). Conditions: 298 K; Conc. 0.00 (unit not given; Na+/Cl–).
The target in data set [19] is Glu6 (UniProt position 6, MVKQIESKTAF). The following applies: 298 K; Conc. 0.00 (unit not given; Na+/Cl–).
In data set [20] the target is Glu68 (UniProt position 68, QDVASECEVKC). Conditions: 298 K; Conc. 0.00 (unit not given; Na+/Cl–).
For data set [21], the target named is Glu70 (UniProt position 70, VASECEVKCMP). Conditions: 298 K; Conc. 0.00 (unit not given; Na+/Cl–).
The target in data set [22] is Glu88 (UniProt position 88, GQKVGEFSGAN). The following applies: 298 K; Conc. 0.00 (unit not given; Na+/Cl–).
In data set [23] the target is Glu95 (UniProt position 95, SGANKEKLEAT). The following applies: 298 K; Conc. 0.00 (unit not given; Na+/Cl–).
The target of data set [24] is Glu98 (UniProt position 98, NKEKLEATINE). The following applies: 298 K; Conc. 0.00 (unit not given; Na+/Cl–).
The target of data set [25] is Asp10 (UniProt position 10, VEIFTDGSCLG). Kind of data set: NMR (per the title of cited ref 95). The following applies: 300 K; Conc. 0.10 (unit not given; Na+/Cl–).
In data set [26] the target is Asp108 (UniProt position 108, LWQRLDAALGQ). As to the kind of experiment: NMR (per the title of cited ref 95). Conditions: 300 K; Conc. 0.10 (unit not given; Na+/Cl–).
The target of data set [27] is Asp134 (UniProt position 134, ENERCDELARA). Kind of data set: NMR (per the title of cited ref 95). The following applies: 300 K; Conc. 0.10 (unit not given; Na+/Cl–).
Data set [28] addresses Asp70 (UniProt position 70, VILSTDSQYVR). As to the kind of experiment: NMR (per the title of cited ref 95). Conditions: 300 K; Conc. 0.10 (unit not given; Na+/Cl–).
Data set [29] concerns the target Asp94 (UniProt position 94, GWKTADKKPVK). As to the kind of experiment: NMR (per the title of cited ref 95). Conditions: 300 K; Conc. 0.10 (unit not given; Na+/Cl–).
Data set [30] addresses Glu119 (UniProt position 119, HQIKWEWVKGH). Kind of data set: NMR (per the title of cited ref 95). The following applies: 300 K; Conc. 0.10 (unit not given; Na+/Cl–).
In data set [31] the target is Glu129 (UniProt position 129, HAGHPENERCD). As to the kind of experiment: NMR (per the title of cited ref 95). Conditions: 300 K; Conc. 0.10 (unit not given; Na+/Cl–).
Data set [32] has as its target Glu131 (UniProt position 131, GHPENERCDEL). Kind of data set: NMR (per the title of cited ref 95). Conditions: 300 K; Conc. 0.10 (unit not given; Na+/Cl–).
Data set [33] has as its target Glu135 (UniProt position 135, NERCDELARAA). As to the kind of experiment: NMR (per the title of cited ref 95). Conditions: 300 K; Conc. 0.10 (unit not given; Na+/Cl–).
In data set [34] the target is Glu147 (UniProt position 147, MNPTLEDTGYQ). As to the kind of experiment: NMR (per the title of cited ref 95). Conditions: 300 K; Conc. 0.10 (unit not given; Na+/Cl–).
For data set [35], the target named is Glu154 (UniProt position 154, TGYQVEV----). Kind of data set: NMR (per the title of cited ref 95). Conditions: 300 K; Conc. 0.10 (unit not given; Na+/Cl–).
In data set [36] the target is Glu32 (UniProt position 32, RYRGREKTFSA). Kind of data set: NMR (per the title of cited ref 95). Conditions: 300 K; Conc. 0.10 (unit not given; Na+/Cl–).
Data set [37] deals with Glu48 (UniProt position 48, TNNRMELMAAI). As to the kind of experiment: NMR (per the title of cited ref 95). The following applies: 300 K; Conc. 0.10 (unit not given; Na+/Cl–).
The target of data set [38] is Glu57 (UniProt position 57, AIVALEALKEH). As to the kind of experiment: NMR (per the title of cited ref 95). Conditions: 300 K; Conc. 0.10 (unit not given; Na+/Cl–).
In data set [39] the target is Glu6 (UniProt position 6, MLKQVEIFTDG). Kind of data set: NMR (per the title of cited ref 95). Conditions: 300 K; Conc. 0.10 (unit not given; Na+/Cl–).
In data set [40] the target is Glu61 (UniProt position 61, LEALKEHCEVI). As to the kind of experiment: NMR (per the title of cited ref 95). The following applies: 300 K; Conc. 0.10 (unit not given; Na+/Cl–).
Data set [41] deals with Glu64 (UniProt position 64, LKEHCEVILST). Kind of data set: NMR (per the title of cited ref 95). The following applies: 300 K; Conc. 0.10 (unit not given; Na+/Cl–).
Data set [42] concerns the target Asp27 (UniProt position 156, PLCGSDNKTYG). The following applies: 298 K; Conc. 0.015 (unit not given; K+/Cl–).
The target of data set [43] is Asp7 (UniProt position 136, AAVSVDCSEYP). The following applies: 298 K; Conc. 0.015 (unit not given; K+/Cl–).
In data set [44] the target is Lys13 (UniProt position 142, CSEYPKPACTL). Conditions: 298 K; Conc. 0.015 (unit not given; K+/Cl–).
Data set [45] addresses Lys29 (UniProt position 158, CGSDNKTYGNK). Conditions: 298 K; Conc. 0.015 (unit not given; K+/Cl–).
The target in data set [46] is Lys34 (UniProt position 163, KTYGNKCNFCN). Conditions: 298 K; Conc. 0.015 (unit not given; K+/Cl–).
Data set [47] deals with Lys55 (UniProt position 184, LSHFGKC----). The following applies: 298 K; Conc. 0.015 (unit not given; K+/Cl–).

For orientation: pKa means the negative logarithm of the acid dissociation constant. On to “DNA polymerase lambda, lyase (8 kDa) domain (Homo sapiens)”, for which the pKa in data set [1] is on record as 10.07 ± 0.14; in data set [2], 10.23 ± 0.14; in data set [3], 10.07 ± 0.14; in [4], 10.01 ± 0.14; in data set [5] it was 10.65 ± 0.14; in [6], 10.26 ± 0.14. Further, the pKa in data set [7] is given as 10.16 ± 0.14; in [8] it was 9.58 ± 0.14; in data set [9], 10.27 ± 0.14; in data set [10], 10.27 ± 0.14.

With “Thioredoxin (human, reduced) (Homo sapiens)”, the pKa in data set [11] is on record as 4.1 ± 0.10; in data set [12], 3.8 ± 0.05; in data set [13], 9.9 ± 0.10; in [14] it was 3.2 ± 0.06; in data set [15], 4.4 ± 0.07; in data set [16] it was 4.4 ± 0.07. Further, the pKa in data set [17] is 4.1 ± 0.10; in [18], 3.1 ± 0.10; in [19] it was 4.8 ± 0.08; in data set [20], 4.9 ± 0.07; in data set [21], 4.6 ± 0.08; in data set [22], 3.7 ± 0.08. The pKa is recorded as 4.1 ± 0.02 in data set [23] and 3.9 ± 0.02 in data set [24].

For Ribonuclease HI (Escherichia coli), the pKa in data set [25] is 6.1; in data set [26], 3.2; in data set [27], 4.1; in [28], 2.6; in [29] it was 3.2; in [30], 4.1. Also, the pKa in data set [31] is recorded as 3.6; in [32], 4.3; in data set [33], 4.3; in data set [34], 4.2; in [35], 4.4; in data set [36], 3.6. For the same substance, the pKa in data set [37] was 4.4; in [38] it was 3.2; in data set [39], 4.5; in data set [40], 3.9; in data set [41], 4.4.

As to “Turkey ovomucoid third domain (OMTKY3) (Meleagris gallopavo)”, the pKa in [42] is given as 2.56 ± 0.03; in data set [43] it was 2.95 ± 0.03; in [44] it was 9.86 ± 0.03; in [45], 11.12 ± 0.02; in [46] it was 10.13 ± 0.05; in data set [47], 11.10 ± 0.06.
